In patent publication US20120045785A1:

Assays:
[1] = biological target: HtubA/B dimer (hybrid bacterial-bovine tubulin heterodimer) (Prosthecobacter dejongeii); assay: cell-based or functional assay
eukaryotic microtubules = assay: cell-based or functional assay

HtubA/B dimer (hybrid bacterial-bovine tubulin heterodimer) (Prosthecobacter dejongeii), sequence (chain, as listed by the source, chain 1 of 2): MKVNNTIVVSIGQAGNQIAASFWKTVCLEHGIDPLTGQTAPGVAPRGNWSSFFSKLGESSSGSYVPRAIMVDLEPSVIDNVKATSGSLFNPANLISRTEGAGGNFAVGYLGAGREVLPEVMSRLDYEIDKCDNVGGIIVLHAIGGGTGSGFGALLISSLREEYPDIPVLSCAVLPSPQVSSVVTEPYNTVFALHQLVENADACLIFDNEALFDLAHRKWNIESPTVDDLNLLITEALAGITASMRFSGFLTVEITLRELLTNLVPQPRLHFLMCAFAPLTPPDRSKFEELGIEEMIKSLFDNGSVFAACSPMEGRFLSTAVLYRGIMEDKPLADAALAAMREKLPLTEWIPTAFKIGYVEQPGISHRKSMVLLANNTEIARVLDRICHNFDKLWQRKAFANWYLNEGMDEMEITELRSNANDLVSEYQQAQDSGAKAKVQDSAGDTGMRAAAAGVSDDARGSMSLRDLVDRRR
HtubA/B dimer (hybrid bacterial-bovine tubulin heterodimer) (Prosthecobacter dejongeii), sequence (chain, as listed by the source, chain 2 of 2): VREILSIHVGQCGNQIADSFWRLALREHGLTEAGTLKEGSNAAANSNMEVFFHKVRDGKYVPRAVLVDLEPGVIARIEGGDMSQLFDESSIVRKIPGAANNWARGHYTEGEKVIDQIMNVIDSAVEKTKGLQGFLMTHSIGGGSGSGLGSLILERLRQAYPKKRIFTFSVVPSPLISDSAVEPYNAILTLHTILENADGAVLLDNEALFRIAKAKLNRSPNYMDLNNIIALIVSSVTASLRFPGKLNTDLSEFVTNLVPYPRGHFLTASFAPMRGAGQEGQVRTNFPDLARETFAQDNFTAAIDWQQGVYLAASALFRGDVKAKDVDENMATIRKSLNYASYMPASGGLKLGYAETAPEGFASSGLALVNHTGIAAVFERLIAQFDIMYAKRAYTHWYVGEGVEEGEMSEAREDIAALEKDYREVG

rate of ATP binding (MANT-ATP, stopped-flow) [1]: 265 s⁻¹
rate of ATP binding (MANT-ATP, stopped-flow) (eukaryotic microtubules): 25 to 30 s⁻¹
Substance: Eg5 (a kinesin-5) motor domain (enzyme)
